In patent US20170362322A1 (published 2017):
Read-outs that look alike come from different tables or passages of the source. Each block holds one binder with its values, some of them ahead of it.

Legend:
B7-H3 [1] = target: T1, B7-H3 (human); assay: competition ELISA (phage)
T1 chain: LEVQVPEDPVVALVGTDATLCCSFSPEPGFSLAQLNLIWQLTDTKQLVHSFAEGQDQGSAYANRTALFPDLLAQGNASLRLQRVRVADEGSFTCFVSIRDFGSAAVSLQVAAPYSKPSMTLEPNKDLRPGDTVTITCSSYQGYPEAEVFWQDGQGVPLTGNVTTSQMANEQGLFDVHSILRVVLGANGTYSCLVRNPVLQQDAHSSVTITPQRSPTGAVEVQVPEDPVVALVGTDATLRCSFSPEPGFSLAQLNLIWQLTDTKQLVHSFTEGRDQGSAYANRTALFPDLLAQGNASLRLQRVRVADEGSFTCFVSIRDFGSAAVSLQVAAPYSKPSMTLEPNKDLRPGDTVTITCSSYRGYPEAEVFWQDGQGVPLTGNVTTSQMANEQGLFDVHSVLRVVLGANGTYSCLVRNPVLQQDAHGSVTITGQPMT

B7-H3 [2] = target: T1, B7-H3; assay: competition ELISA (phage)
B7-H3 [3] = target: T1, B7-H3; assay: Octet BLI; conc. 1.56 nM
B7-H3 [4] = target: T1, B7-H3; assay: Octet BLI; conc. 6.25 nM
B7-H3 [5] = target: T1, B7-H3; assay: Octet BLI; conc. 50 nM
B7-H3 [6] = target: T1, B7-H3; assay: Octet BLI; conc. 25 nM
B7-H3 [7] = target: T1, B7-H3; assay: Octet BLI; conc. 100 nM
B7-H3 [8] = target: T1, B7-H3; assay: Octet BLI; conc. 12.5 nM
B7-H3 [9] = target: T1, B7-H3; assay: Octet BLI; conc. 3.13 nM

B2: 2-5 (antibody, V domains shown)
VH: QVQLQQSGAEVKKPGASVKVSCKASGYTFTNYDINWVRQAPGQGLEWIGWIFPGDGSTQYNEKFKGRATLTTDTSTSTAYMELSSLRSEDTAVYFCARQTTSTWFAYWGQGTLVTVSS
VL: DIVLTQSPATLSLSPGERATLSCRASQIISDYLHWYQQKPGQAPRLLIKYASQLISGIPARFSGSGSGSDFTLTISSLEPEDFAVYYCQNGHSFPLTFGGGTKVEIKR
IC50 (B7-H3 [1]): 85 nM

B3: 1-4 (antibody, V domains shown)
VH: QVQLQQSGAEVKKPGASVKVSCKASGYTFTNYDINWVRQAPGQGLEWIGWIFPGDGSTQYNPKFKGRATLTTDTSTSTAYMELSSLRSEDTAVYFCARQTTGTWFAYWGQGTLVTVSS
VL: DIVLTQSPATLSLSPGERATLSCRASQSISTYLHWYQQKPGQAPRLLIKEASQSISGIPARFSGSGSGSDFTLTISSLEPEDFAVYYCQNGHSFPLTFGGGTKVEIKR
IC50 (B7-H3 [2]): 5.6 nM

B4: 1-5 (antibody, V domains shown)
VH: QVQLQQSGAEVKKPGASVKVSCKASGYTFTNYDINWVRQAPGQGLEWIGWIFPGDGSTQYNEKFKGRATLTTDTSTSTAYMELSSLRSEDTAVYFCARQTTGTWFAYWGQGTLVTVSS
VL: DIVLTQSPATLSLSPGERATLSCRASQSISHYLHWYQQKPGQAPRLLIKYASQSLSGIPARFSGSGSGSDFTLTISSLEPEDFAVYYCQNGHSFPLTFGGGTKVEIKR
IC50 (B7-H3 [2]): 5.1 nM

B5: 1-1 (antibody, V domains shown)
VH: QVQLQQSGAEVKKPGASVKVSCKASGYTFTNYDINWVRQAPGQGLEWIGWIFPGDGSTQYNGKFKGRATLTTDTSTSTAYMELSSLRSEDTAVYFCARQTTGTWFAYWGQGTLVTVSS
VL: DIVLTQSPATLSLSPGERATLSCRASQSISPYLHWYQQKPGQAPRLLIKYASQSWSGIPARFSGSGSGSDFTLTISSLEPEDFAVYYCQNGHSFPLTFGGGTKVEIKR
IC50 (B7-H3 [2]): 8.8 nM

B6: 1-7 (antibody, V domains shown)
VH: QVQLQQSGAEVKKPGASVKVSCKASGYTYTNYDINWVRQAPGQGLEWIGWIFPGDGSTQYNEKFKGRATLTTDTSTSTAYMELSSLRSEDTAVYFCARQTTGTWFAYWGQGTLVTVSS
VL: DIVLTQSPATLSLSPGERATLSCRASQSISPYLHWYQQKPGQAPRLLIKHASQSISGIPARFSGSGSGSDFTLTISSLEPEDFAVYYCQNGHSFPLTFGGGTKVEIKR
IC50 (B7-H3 [2]): 5.6 nM

B7: 8 (2-8Ig) (antibody, V domains shown)
VH: QVQLQQSGAEVKKPGASVKVSCKASGYTFTNYDINWVRQAPGQGLEWIGWIFPGDGSTQYNEKFKGRATLTTDTSTSTAYMELSSLRSEDTAVYFCARQTTGTWFAYWGQGTLVTVSS
VL: DIVLTQSPATLSLSPGERATLSCRASQSISEYLHWYQQKPGQAPRLLIKHASQSISGIPARFSGSGSGSDFTLTISSLEPEDFAVYYCQNGHSFPLTFGGGTKVEIKR
Kd (B7-H3 [3]): 0.0135 nM | Kd (B7-H3 [4]): 0.0179 nM | Kd (B7-H3 [5]): 0.0401 nM | Kd (B7-H3 [6]): 0.0309 nM | Kd (B7-H3 [7]): 0.0884 nM | Kd (B7-H3 [8]): 0.0234 nM | Kd (B7-H3 [9]): 0.0218 nM

Further lines, results first:

IC50 (B7-H3 [1]): 11.4 nM
B1: 2-8 (antibody, V domains shown)
VH: QVQLQQSGAEVKKPGASVKVSCKASGYTFTNYDINWVRQAPGQGLEWIGWIFPGDGSTQYNEKFKGRATLTTDTSTSTAYMELSSLRSEDTAVYFCARQTTGTWFAYWGQGTLVTVSS
VL: DIVLTQSPATLSLSPGERATLSCRASQSISEYLHWYQQKPGQAPRLLIKHASQSISGIPARFSGSGSGSDFTLTISSLEPEDFAVYYCQNGHSFPLTFGGGTKVEIKR

IC50 (B7-H3 [2]): 10 nM
B8: 1-2 (antibody, V domains shown)
VH: QVQLQQSGAEVKKPGASVKVSCKASGYTFTNYDINWVRQAPGQGLEWIGWIFPGDGSTQYNETFKGRATLTTDTSTSTAYMELSSLRSEDTAVYFCARQTTGTWFAYWGQGTLVTVSS
VL: DIVLTQSPATLSLSPGERATLSCRASQSISKYLHWYQQKPGQAPRLLIKYANQSIRGIPARFSGSGSGSDFTLTISSLEPEDFAVYYCQNGHSFPLTFGGGTKVEIKR
